Assay results reported in PMC9061721 (Nature Communications, 2022).

B1: antibody 28-6 (antibody, V domains shown)
VH: EVQLVQSGGGLAQPGGSLRLSCTASGFAFSSYGMNWVRQTPGKGLEWVSYISSGSTIIDYAGSVKGRFTISRDNAKNSLHLEMNSLRDEDTAVYYCARDRGCSSTTCYVIGYYYYGMDVWGQGTTVTVSS
VL: DIQMTQSPSSVSASVGDRVTITCRASQGINRRLVWYQQKPGKVPKLLIYDASSLQCGVPSRFSGSGSGTDFTITISSLQPEDFATYYCQQADSFPLTFGQGTRLEIK
B2: antibody 28-2 (antibody, V domains shown)
VH: EVQLVESGGGLVQPGGSLRLSCAASGFTFSTYSMNWVRQAPGKGLEWLSYISTSSSTIDYADSVKGRFTISRDNAKNSLYLQMNSLRDEDTAVYYCARDRGCSSTNCYVVGYYFYGMDVWGQGTTVTVSS
VL: DIQMIQSPSSVSASVGDRVTITCRASQGISSYLAWYQQKPGKAPKLLIYAASRLQSGVPSRFSGSGSGTDFTLTISGLQPEDFATYHCQQANSFPLTFGQGTRLEIK
B3: antibody 28-4 (antibody, V domains shown)
VH: EVQLVQSGGGLVQPGGSLGLSCAASGFTFSNYNMNWVRQAPGKGLEWLAYISGSSNTIFYADSVKGRFTISRDNAKNSLHLQMSSLRDEDTAVYYCARDRGCNSNICYVVGYYFYGMDDWGQGTTVTVSS
VL: DIQMTQSPSSVSASVGDRVTITCRASQAITSYLVWYQQKPGKAPKLLIYDAARLESGVPSRFSGSGSGTHFTLTINNLQPEDFATYYCQQADSFPLTFGQGTRLEIK
B4: 3I14 (antibody, V domains shown)
VH: QVQLLESGGGVVQPGRSLRLSCAASGFTFSNYGMHWVRQAPGKGLEWVAIISFDGSKKYYANSVKGRSTISRDNSKNTLSLQMNSLGPEDTALYYCAKLPSPYYFDSRFVWVAASAFHFWGQGILVTVSS
VL: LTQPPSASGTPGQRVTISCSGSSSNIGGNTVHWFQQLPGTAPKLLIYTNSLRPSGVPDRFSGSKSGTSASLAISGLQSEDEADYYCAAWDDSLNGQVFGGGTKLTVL
notes: source: Expi CHO cells, cotransfected, purified (Protein A Agarose)

What was measured:
[1] = target: recombinant human insulin (Homo sapiens, UniProt P01308); test: ELISA; conditions: both partners purified
[2] = target: T1, H3 peptide 36-57HA2 (wild type) (Influenza A virus A/Hong Kong/1/1968 …, UniProt Q91MA7, strain); test: ELISA; conditions: both partners purified
T1 construct: source: synthetic peptide

recombinant human insulin, sequence (P01308 whole entry, looked up): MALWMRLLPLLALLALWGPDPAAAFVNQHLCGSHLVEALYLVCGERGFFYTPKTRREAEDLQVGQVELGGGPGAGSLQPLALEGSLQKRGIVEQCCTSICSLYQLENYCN

Row | Binder | binding result [1] | binding result [2]
1 | B1 | no binding | –
2 | B2 | no binding | –
3 | B3 | no binding | –
4 | B4 | – | binds
